# Results reported in publication PMC12803514, “The RNA-binding protein HuR modulates the expression of the disease-linked CCL2 rs1024611G-rs13900T haplotype”.
# B1: rs13900T oligoribonucleotide (ssRNA)
# RNA: CUUUCCCCAGACACCUUGUUUUAUUU
# Target: HuR (ELAVL1 human recombinant protein) (Homo sapiens, UniProt Q15717 1-326)
# Test: EMSA; HuR 0-150 µM as printed (25-200 µM in Methods); 20 mM HEPES pH 7.6, 3 mM MgCl2, 40 mM KCl, 5% glycerol, 2 mM DTT, 20 µg yeast tRNA, 20 U RNasin, 20 µL, on ice 10 min (plus 15 min with antibody); 5% native PAGE, 0.5x TBE
# Details: protein: commercial
# HuR (ELAVL1 human recombinant protein), sequence (Q15717 whole entry): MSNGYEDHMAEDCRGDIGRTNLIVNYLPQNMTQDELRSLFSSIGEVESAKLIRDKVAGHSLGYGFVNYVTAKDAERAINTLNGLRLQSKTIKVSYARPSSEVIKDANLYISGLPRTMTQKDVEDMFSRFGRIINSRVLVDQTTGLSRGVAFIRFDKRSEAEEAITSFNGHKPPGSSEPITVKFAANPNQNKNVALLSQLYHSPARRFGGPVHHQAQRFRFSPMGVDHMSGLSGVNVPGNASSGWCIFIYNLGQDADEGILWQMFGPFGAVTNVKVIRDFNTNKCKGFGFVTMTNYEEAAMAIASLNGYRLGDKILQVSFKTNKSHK
binder,measurement,value
B1,binding result,binds
